Results: US20240350583A1, “COMPOSITION FOR PREVENTING OR TREATING FIBROTIC DISEASES, COMPRISING HAPLN1” (Chung Ang University Industry Academic Cooperation …, priority 2021, published 2024)
Entries after “also recorded” stand apart in the source; their conditions may differ.

How the values were obtained:
[1] = may vary from cell to cell; related literature; cited from earlier work
[2] = test system: human kidney renal tubule cell (Human Kidney 2, HK-2); experiment: Cell morphological changes of TGFβ1-treated HK-2 cells; format: cell-based; conditions: TGFβ1 10 ng/ml 24 h
Method: (1) Human kidney renal tubule cells (HK-2) were seeded (3.0×10^5 cells/well) in a 6-well plate according to the experimental scheme of FIG. 8A and incubated in RPMI 1640 Medium (11875-093, Gibco) including 10% FBS for 24 hours in an incubator at 37° C. 5% CO2.
(2) Afterwards, the plates were washed several times with PBS, and each well of the plate was treated with TGFβ1 (10 ng/ml) and incubated for 24 hours.
(3) Subsequently, the plates were then treated with the composition of the present disclosure (rhHAPLN1 protein content of 0, 5, 10, 20, 50 and 100 ng/ml) and pirfenidone 0.2 mg/mL (200 μg/mL), respectively, and incubated for 24 hours.
(4) The wells containing each sample were then washed twice with 1×PBS, treated with 4% paraformaldehyde and fixed for 1 hour.
(5) After washing twice with 1×PBS, the shape or morphology of the cells was observed under a microscope.

[3] = test system: human kidney renal tubule cell (Human Kidney 2, HK-2); experiment: Anti-fibrotic efficacy in HK-2 cells (drug after TGFβ1), αSMA western blot; format: cell-based
Method: (1) Human kidney renal tubule cells (HK-2) were seeded (2.8×10^5 cells/well) in a […] according to the experimental scheme of FIG. 7A and incubated in RPMI 1640 Medium (11875-093, Gibco) including 10% FBS for 24 hours in an incubator at 37° C. 5% CO2.
(2) Afterwards, the plates were washed several times with PBS, and each well of the plate was treated with TGFβ1 (5 ng/ml) and incubated for 24 hours.
(3) Subsequently, the plates were then treated with the composition of the present disclosure (rhHAPLN1 protein content of 0, 5, 10, 20, and 50 ng/ml) and pirfenidone 0.2 mg/mL (200 μg/mL), respectively, and incubated for 48 hours.
(4) Each sample was then washed several times with ice-cold PBS, treated with radioimmunoprecipitation assay (RIPA) lysis and extraction buffer (Thermo Scientific) including protease and phosphatase inhibitors, scraped with a scraper, and transferred to an E-tube.
(§1) (5) By centrifugation (12000 rpm, 20 minutes, 4° C.), only the supernatant was obtained, and BCA assay was performed to obtain quantitative protein values.
(6) After quantification using the obtained quantitative value, cooking was performed at 100° C. for 3 minutes and then stored in a −20° C. refrigerator. […]
(11) After washing three times with TBST for 10 minutes each, the samples were detected by Chemidoc.

[4] = test system: REMyOF system (renal proximal tubule epithelial cells and adult fibroblasts); experiment: BioMAP Fibrosis panel, REMyOF system (kidney fibrosis model), ELISA; format: cell-based
Excerpt: (§2) The anti-fibrotic action effect of the composition of the present disclosure on pulmonary fibrosis and kidney fibrosis was verified by examining the expression level of various fibrosis markers using the BioMAP Fibrosis Panel (provided by Eurofins discovery).
(§3) BioMAP Fibrosis panel consists of three models, SAEMyoF system (co-culturing small airway epithelial cells and adult fibroblasts), REMyOF system (co-culture of renal proximal tubule epithelial cells and adult fibroblasts), and MyOF system (differentiated lung myofibroblasts). Here, the SAEMyoF system represents interstitial lung diseases (IDL), including pulmonary fibrotic diseases such as idiopathic pulmonary fibrosis (IPF), and the REMyOF system represents kidney fibrosis disease, which is associated with end-stage renal failure. However, experiments were conducted to confirm the effect of the MyoF system only on myofibroblasts.
(§4) (1) Each primary cell was used by pooling cells from multiple donors (n=3 to 6), and cells were first cultured in 96-well plates to confluence before adding a peripheral blood mononuclear cell (PBMC).
(2) Subsequently, the cells were then each treated with the composition of the present disclosure (rhHAPLN1 protein content of 0, 3.7, 11, and 33 ng/ml) at different concentrations and cultured for 1 hour.
(3) The plates were then treated with TNF and TGFβ1 and incubated for 48 hours.
(4) Direct enzyme-linked immunosorbent assay (ELISA) was performed on the expression levels of various biomarkers.
Each quantitative value was compared as a relative fold change compared to the vehicle control. Statistical processing was performed using unpaired t-test, significant differences vs vehicle control, *p<0.05, **p<0.01, and ***p<0.001.

[5] = test system: renal proximal tubule epithelial cell (RPTEC); experiment: Age-induced fibrosis of RPTEC (passage 11), αSMA western blot; format: cell-based; conditions: aged cells (P11); rhHAPLN1 100 ng/ml; 72 hours
Method: (1) Renal proximal tubule epithelial cell (RPTEC) of the 3rd passage culture and 10th passage culture were seeded (5.0×10^5 cells) in 60Φ culture dishes and cultured in complete renal epithelial cell medium (ATCC PCS-400-030+ATCC PCS-400-040) in an incubator at 37° C. 5% CO2 for 24 hours.
(2) Subsequently, the cells were then treated with the composition of the present disclosure (rhHAPLN1 protein content of 0, 10, and 100 ng/ml, respectively) and cultured for an additional 72 hours.
(4) After washing three times with ice-cold PBS, each well was treated with 300 μl of RIPA lysis and extraction buffer including protease inhibitors and phosphatase inhibitors, scraped with a scraper to harvest cells, and transferred to an E-tube.
as §1
(6) Using a 4% to 15% precast acrylamide PAGE gel, proteins were loaded at 20 μg per lane and run (80V-20 minutes, 120V-1 hour 30 minutes).
(7) Western blot was performed on the samples. Here, anti-αSMA Ab (Abcam, ab7817), anti-GAPDH Ab (Santa Cruz, sc-32233) were used as primary antibodies and HRP-conjugated anti-mouse IgG Ab (CST, #7076) as secondary antibodies.

[6] = test system: MyOF system (differentiated lung myofibroblasts); experiment: BioMAP Fibrosis panel, MyoF system, ELISA; format: cell-based
Excerpt: as §2, §3, §4
(2) Subsequently, the cells were then each treated with the composition of the present disclosure (rhHAPLN1 protein content of 0, 3.7, 11, and 33 ng/ml) at different concentrations and cultured for 1 hour. […]
Each quantitative value was compared as a relative fold change compared to the vehicle control. […]

Cc1ccc(=O)n(-c2ccccc2)c1 [pirfenidone, reference compound]
effective doses in cells [1]: ≥ 100 µg/mL
cell morphology after TGFβ1-induced sharp fibrotic form (FIG. 8B) ([2]; then pirfenidone 0.2 mg/mL 24 h): round

B1: rhHAPLN1: recombinant human HAPLN1 protein of SEQ ID NO: 1 produced in CHO-K1 cells, stabilized in acetic acid buffer, sucrose, PS80, pH 5.0 (protein, listed as Homo sapiens)
chain: MKSLLLLVLISICWADHLSDNYTLDHDRAIHIQAENGPHLLVEAEQAKVFSHRGGNVTLPCKFYRDPTAFGSGIHKIRIKWTKLTSDYLKEVDVFVSMGYHKKTYGGYQGRVFLKGGSDSDASLVITDLTLEDYGRYKCEVIEGLEDDTVVVALDLQGVVFPYFPRLGRYNLNFHEAQQACLDQDAVIASFDQLYDAWRGGLDWCNAGWLSDGSVQYPITKPREPCGGQNTVPGVRNYGFWDKDKSRYDVFCFTSNFNGRFYYLIHPTKLTYDEAVQACLNDGAQIAKVGQIFAAWKILGYDRCDAGWLADGSVRYPISRPRRRCSPTEAAVRFVGFPDKKHKLYGVYCFRAYN
anti-fibrotic efficacy (αSMA) compared to pirfenidone 0.2 mg/ml ([3]; rhHAPLN1 50 ng/ml): almost equivalent to that of pirfenidone
anti-fibrotic efficacy (αSMA) compared to composition that does not include rhHAPLN1 protein (FIG. 7B, FIG. 7C) ([3]; rhHAPLN1 10 to 50 ng/ml, 48 hours after 24 hours TGFβ1): superior anti-fibrotic action; also recorded: excellent anti-fibrotic efficacy
optimal concentration for anti-fibrotic efficacy in the kidney (assumed) ([4]; collagen I): 11 ng/mL
expression level of collagen I, fold change compared to vehicle control (FIG. 11B) ([4]; regardless of rhHAPLN1 content (3.7, 11, 33 ng/ml)): ≤ 0.9 fold
expression level of collagen I, fold change compared to vehicle control (FIG. 11B) ([4]; rhHAPLN1 11 ng/ml): ~0.7 fold
decrease of expression amount of αSMA protein compared to composition without rhHAPLN1 (FIG. 9B) [5]: about ⅓
expression level of collagen I (MyoF system, FIG. 11C), fold change compared to vehicle control ([6]; in proportion to rhHAPLN1 content (3.7, 11, 33 ng/ml)): ≤ 0.8 fold
expression level of collagen IV, fold change compared to vehicle control (FIG. 11C) ([6]; rhHAPLN1 33 ng/ml): 0.7 fold
cell morphology after TGFβ1-induced sharp fibrotic form (FIG. 8B) ([2]; then rhHAPLN1 5-100 ng/ml 24 h): the shape of the cells changed to round
